Assay [1] deals with FcRn (neonatal Fc receptor) immobilised in the FcRn binding affinity measurement (UniProt P55899). Description: BLI. In general terms: BLI is a label-free optical method that tracks binding on a fibre tip over time.
In assay [2] the target is human neonatal Fc receptor (FcRn heavy chain FCGRT with B2M) on MDCK-hFcRn cells (human) (UniProt P55899). Description: flow cytometry on cells. (In flow cytometry, cells or beads pass a laser one at a time.)

Take Adalimumab (antibody): in assay [1], the dissociation constant (Kd) (as a rule, a measure of binding affinity in units of concentration) stood at 1.18 µM. This substance showed an MFI (binding to MDCK-hFcRn cells) in assay [2] of 183 MFI.

Basiliximab (antibody): in assay [2], the MFI (binding to MDCK-hFcRn cells) was determined as 203 MFI.

Regarding Emicizumab (bispecific antibody), the Kd in assay [1] turned out to be 1.23 µM.

Consider Infliximab (antibody), for which, in assay [2], the MFI (binding to MDCK-hFcRn cells) worked out at 128 MFI.

The substance Ocrelizumab (antibody) registered an MFI (binding to MDCK-hFcRn cells) in assay [2] of 101 MFI.

For Rituximab (antibody), the Kd in assay [1] came out at 0.46 µM.

The substance “anti-herpes simplex virus glycoprotein D (gD)-YTE antibody” had an MFI (cell binding to MDCK-hFcRn cells) in assay [2] of 1150 MFI.

Source of the values: paper PMC6601550.
